Laboratory results published in publication PMC6085346, “A nuclear-encoded protein, mTERF6, mediates transcription termination of rpoA polycistron for plastid-encoded RNA polymerase-dependent chloroplast gene expression and chloroplast development”.

T1: MBP-mTERF6.1 (without transit peptide) (Arabidopsis thaliana, UniProt Q9SZL6 25-333)
T1 sequence: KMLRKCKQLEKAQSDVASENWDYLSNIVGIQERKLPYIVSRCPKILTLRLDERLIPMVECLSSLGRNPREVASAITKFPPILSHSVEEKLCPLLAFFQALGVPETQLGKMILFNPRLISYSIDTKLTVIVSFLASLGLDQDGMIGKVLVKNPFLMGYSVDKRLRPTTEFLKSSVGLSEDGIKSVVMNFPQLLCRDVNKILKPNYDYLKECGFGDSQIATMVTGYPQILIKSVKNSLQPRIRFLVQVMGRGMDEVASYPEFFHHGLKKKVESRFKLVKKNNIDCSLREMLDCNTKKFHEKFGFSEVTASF

B1: probe A (rpoA 3'-end, 122 bp) (dsDNA)
DNA 1: AATTTCTATTTTCCAGTCGAACCCATTTTAATTAATTAATTAAATTAATTAGAATTAGATATGTATCTAGGGAGAATTCATTTGGAAATGACTACTCCCTAGATACCTCCCTAGATACCCAC
DNA 2: GTGGGTATCTAGGGAGGTATCTAGGGAGTAGTCATTTCCAAATGAATTCTCCCTAGATACATATCTAATTCTAATTAATTTAATTAATTAATTAAAATGGGTTCGACTGGAAAATAGAAATT

Assays:
[1] = target: T1, MBP-mTERF6.1 (without transit peptide); test: EMSA; 5 mM MgCl2; shift greatly reduced by 200-fold unlabeled probe A; EMSA 20 uL: LightShift binding buffer, 5 mM MgCl2, 1 mM EDTA, 2.5% glycerol, 0.05% NP-40, 50 ng/uL poly(dI-dC), 20 fmol probe (printed 'fmal'), 0.5 ug protein; settings: protein: recombinant; tags: N-terminal MBP (pMAL-c5X); label: 5' biotin
[2] = target: T1, MBP-mTERF6.1 (without transit peptide); test: EMSA; 5 mM MgCl2; stronger shift than probe A; weakened by 1-, 2-, 8-fold competitor; EMSA 20 uL: LightShift binding buffer, 5 mM MgCl2, 1 mM EDTA, 2.5% glycerol, 0.05% NP-40, 50 ng/uL poly(dI-dC), 20 fmol probe (printed 'fmal'), 0.5 ug protein; settings: protein: recombinant; tags: N-terminal MBP (pMAL-c5X); label: 5' biotin

| Binder | binding result [1] | binding result [2] |
| --- | --- | --- |
| B1 | binds | – |
| AATTTCTATTTTCCAGTCGAAC (ssDNA) [probe B (22 nt, single strand)] | – | binds |
